Substitutions are numbered along the chain they refer to.
How the values were obtained:
Assay in all cases: cell-based or functional assay
human TL1A (in-house) [1] = target: T1, human TL1A (in-house) (human, UniProt O95150 57-251, limits assumed)
T1 sequence: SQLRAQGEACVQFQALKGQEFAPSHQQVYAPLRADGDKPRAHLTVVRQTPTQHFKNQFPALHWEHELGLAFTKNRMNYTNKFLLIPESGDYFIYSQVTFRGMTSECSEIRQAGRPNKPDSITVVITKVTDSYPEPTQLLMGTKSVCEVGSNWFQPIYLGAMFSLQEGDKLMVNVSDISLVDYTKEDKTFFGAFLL

human TL1A (in-house) [2] = target: T1, human TL1A (in-house); remark: listed apart in the source
human TL1A (in-house) [3] = target: T1, human TL1A (in-house); remark: listed apart in the source
[4] = target: T2, TL1A expressed on transfected CHO cells (Homo sapiens (Human), UniProt O95150 1-251)
T2 sequence: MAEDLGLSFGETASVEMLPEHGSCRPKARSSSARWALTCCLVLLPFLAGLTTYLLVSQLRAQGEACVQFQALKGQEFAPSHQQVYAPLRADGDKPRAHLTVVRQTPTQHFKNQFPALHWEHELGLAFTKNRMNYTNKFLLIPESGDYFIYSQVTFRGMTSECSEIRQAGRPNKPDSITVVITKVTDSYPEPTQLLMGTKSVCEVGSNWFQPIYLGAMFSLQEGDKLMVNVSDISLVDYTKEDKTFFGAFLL

human TL1A (in-house) [5] = target: T1, human TL1A (in-house); remark: listed apart in the source
human TL1A (in-house) [6] = target: T1, human TL1A (in-house); remark: listed apart in the source
[7] = target: T3, cynomolgus TL1A (in-house) (cynomolgus monkey, UniProt G7PRK8 57-251)
T3 sequence: T1 sequence with F13L, A15D, F54L, I93V

human TL1A (in-house) [8] = target: T1, human TL1A (in-house); remark: listed apart in the source

B1: TL1A antibody 10A4.F7.2E8 huIgG4 (antibody, V domains shown)
VH: QLQLQESGPGLVKPSETLSLTCTVSGGSISSRSYYWGWIRQPPGKGLEWIGSIYYNGRTYYNPSLKSRVTISVDTSKNQFSLKLSSVTAADTAVYYCAREDYGDYGAFDIWGQGTMVTVSS
VL: AIQLTQSPSSLSASVGDRVTITCRASQGISSALAWYQQKPGKAPKLLIYDASSLESGVPSRFSGSGSGTDFTLTISSLQPEDFATYYCQQFNSYPLTFGGGTKVEIKR
With B1 the “EC50, TL1A + IL-12 + IL-18 driven IFNg (Hu WB)(2.45 mg/ml), Donor A, ELN ref 97305-029” value (human TL1A (in-house) [1]) was 0.32 nM, the “EC50, TL1A + IL-12 + IL-18 driven IFNg (Hu WB)(2.45 mg/ml), Donor A, ELN ref 97305-033” value (human TL1A (in-house) [1]) was 0.284 nM and the “EC50, TL1A + IL-12 + IL-18 driven IFNg (Hu WB)(2.45 mg/ml), Donor B, ELN ref 97305-029” value (human TL1A (in-house) [1]) was 0.54 nM. The “EC50, TL1A + IL-12 + IL-18 driven IFNg (Hu WB)(2.45 mg/ml), Donor B, ELN ref 97305-033” value (human TL1A (in-house) [1]) was 0.108 nM, the “EC50, TL1A + IL-12 + IL-18 driven IFNg (Hu Tcells) (5.9 mg/ml), Donor A, ELN ref 99932-004774” value (human TL1A (in-house) [2]) was 0.171 nM and the “EC50, TL1A + IL-12 + IL-18 driven IFNg (Hu Tcells) (5.9 mg/ml), Donor A, ELN ref 99932-004955” value (human TL1A (in-house) [2]) was 0.273 nM. For the same binder, the “EC50, TL1A + IL-12 + IL-18 driven IFNg (Hu Tcells) (5.9 mg/ml), Donor B, ELN ref 99932-004774” value (human TL1A (in-house) [2]) was 0.243 nM, the “EC50, TL1A + IL-12 + IL-18 driven IFNg (Hu Tcells) (5.9 mg/ml), Donor B, ELN ref 99932-004955” value (human TL1A (in-house) [2]) was 0.182 nM and the “EC50, TL1A-driven phospho-NFkB in Hu Whole Blood(2.45 mg/ml), CD3+CD4-CD8- T-cells, Donor A, no ELN ref printed in this row” value (human TL1A (in-house) [3]) was 0.83 nM. The “EC50, TL1A-driven phospho-NFkB in Hu Whole Blood(2.45 mg/ml), CD4+ T-cells, Donor A, ELN ref A010F-003” value (human TL1A (in-house) [3]) was 2.64 nM, the “EC50, TL1A-driven phospho-NFkB in Hu Whole Blood(2.45 mg/ml), CD4+ T-cells, Donor A, ELN ref A010F-007” value (human TL1A (in-house) [3]) was 0.77 nM and the “EC50, TL1A-driven phospho-NFkB in Hu Whole Blood(2.45 mg/ml), CD4+ T-cells, Donor B, ELN ref A010F-003” value (human TL1A (in-house) [3]) was 2.94 nM. For the same binder, the “EC50, TL1A-driven phospho-NFkB in Hu Whole Blood(2.45 mg/ml), CD4+ T-cells, Donor B, ELN ref A010F-007” value (human TL1A (in-house) [3]) was 3.24 nM, the “EC50, TL1A-driven phospho-NFkB in Hu Whole Blood(2.45 mg/ml), CD8+ T-cells, Donor A, no ELN ref printed in this row” value (human TL1A (in-house) [3]) was 0.85 nM and the “EC50, TL1A-expressing CHO cells + IL-12 + IL-18 driven IFNg (Hu PBMCs)(2.45 mg/ml), Donor A, ELN ref 97305-034” value [4] was 0.234 nM. The “EC50, TL1A-expressing CHO cells + IL-12 + IL-18 driven IFNg (Hu PBMCs)(2.45 mg/ml), Donor B, ELN ref 97305-034” value [4] was 0.214 nM, the “EC50, TL1A + IL-12 + IL-18 driven IFNg (Hu PBMCs) (5.9 mg/ml), Donor A, ELN ref 99932-005481” value (human TL1A (in-house) [5]) was 0.295 nM and the “EC50, TL1A + IL-12 + IL-18 driven IFNg (Hu PBMCs) (5.9 mg/ml), Donor B, ELN ref 99932-005481” value (human TL1A (in-house) [5]) was 0.241 nM. The “EC50, TL1A + IL-12 + IL-18 driven IFNg (Hu NKcells)(2.45 mg/ml), Donor A, ELN ref 97305-070” value (human TL1A (in-house) [6]) was 0.16 nM, the “EC50, TL1A + IL-12 + IL-18 driven IFNg (Hu NKcells)(2.45 mg/ml), Donor A, ELN ref 97305-075” value (human TL1A (in-house) [6]) was 0.147 nM and the “EC50, TL1A + IL-12 + IL-18 driven IFNg (Hu NKcells)(2.45 mg/ml), Donor B, ELN ref 97305-070” value (human TL1A (in-house) [6]) was 0.253 nM. The “EC50, TL1A + IL-12 + IL-18 driven IFNg (Hu NKcells)(2.45 mg/ml), Donor B, ELN ref 97305-075” value (human TL1A (in-house) [6]) was 0.162 nM, the “EC50, TL1A + IL-12 + IL-18 driven IFNg (Cyno PBMCs)(2.45 mg/ml), Donor A, ELN ref 97305-067” value [7] was 0.122 nM and the “EC50, TL1A + IL-12 + IL-18 driven IFNg (Cyno PBMCs)(2.45 mg/ml), Donor A, ELN ref 97305-071” value [7] was 0.154 nM. The “EC50, TL1A + IL-12 + IL-18 driven IFNg (Cyno PBMCs)(2.45 mg/ml), Donor A, ELN ref 97305-074” value [7] was 0.105 nM, the “EC50, TL1A + IL-12 + IL-18 driven IFNg (Cyno PBMCs)(2.45 mg/ml), Donor A, ELN ref 97305-076” value [7] was 0.097 nM and the “EC50, TL1A + IL-12 + IL-18 driven IFNg (Cyno PBMCs)(2.45 mg/ml), Donor B, ELN ref 97305-067” value [7] was 0.164 nM. The “EC50, TL1A + IL-12 + IL-18 driven IFNg (Cyno PBMCs)(2.45 mg/ml), Donor B, ELN ref 97305-071” value [7] was 0.133 nM, the “EC50, TL1A + IL-12 + IL-18 driven IFNg (Cyno PBMCs)(2.45 mg/ml), Donor B, ELN ref 97305-074” value [7] was 0.129 nM and the “EC50, TL1A + IL-12 + IL-18 driven IFNg (Cyno PBMCs)(2.45 mg/ml), Donor B, ELN ref 97305-076” value [7] was 0.093 nM. The “EC50, TL1A + IL-12 + IL-18 driven IFNg (Hu PBMCs) (2.45 mg/ml), Donor A, ELN ref 97305-032” value (human TL1A (in-house) [8]) was 0.131 nM, the “EC50, TL1A + IL-12 + IL-18 driven IFNg (Hu PBMCs) (2.45 mg/ml), Donor A, ELN ref 97305-037” value (human TL1A (in-house) [8]) was 0.138 nM and the “EC50, TL1A + IL-12 + IL-18 driven IFNg (Hu PBMCs) (2.45 mg/ml), Donor A, ELN ref 97305-040” value (human TL1A (in-house) [8]) was 0.167 nM. For the same binder, the “EC50, TL1A + IL-12 + IL-18 driven IFNg (Hu PBMCs) (2.45 mg/ml), Donor A, ELN ref 97305-041” value (human TL1A (in-house) [8]) was 0.209 nM, the “EC50, TL1A + IL-12 + IL-18 driven IFNg (Hu PBMCs) (2.45 mg/ml), Donor A, ELN ref 97305-044” value (human TL1A (in-house) [8]) was 0.272 nM and the “EC50, TL1A + IL-12 + IL-18 driven IFNg (Hu PBMCs) (2.45 mg/ml), Donor A, ELN ref 97305-047” value (human TL1A (in-house) [8]) was 0.095 nM. The “EC50, TL1A + IL-12 + IL-18 driven IFNg (Hu PBMCs) (2.45 mg/ml), Donor A, ELN ref 97305-050” value (human TL1A (in-house) [8]) was 0.209 nM, the “EC50, TL1A + IL-12 + IL-18 driven IFNg (Hu PBMCs) (2.45 mg/ml), Donor A, ELN ref 97305-061” value (human TL1A (in-house) [8]) was 0.26 nM and the “EC50, TL1A + IL-12 + IL-18 driven IFNg (Hu PBMCs) (2.45 mg/ml), Donor A, ELN ref 99932-005481” value (human TL1A (in-house) [8]) was 0.301 nM. For the same binder, the “EC50, TL1A + IL-12 + IL-18 driven IFNg (Hu PBMCs) (2.45 mg/ml), Donor B, ELN ref 97305-032” value (human TL1A (in-house) [8]) was 0.197 nM, the “EC50, TL1A + IL-12 + IL-18 driven IFNg (Hu PBMCs) (2.45 mg/ml), Donor B, ELN ref 97305-037” value (human TL1A (in-house) [8]) was 0.289 nM and the “EC50, TL1A + IL-12 + IL-18 driven IFNg (Hu PBMCs) (2.45 mg/ml), Donor B, ELN ref 97305-040” value (human TL1A (in-house) [8]) was 0.146 nM.

— patent publication US20190135928A1 (Bristol-Myers Squibb, published 2019)
